This passage reports concentration required to half-inhibit human TNFβ results from patent US20060140946A1.

The target of this experiment is human lymphotoxin (TNFβ) (human) (UniProt P01374). The experiment can be described thus: cell-based or functional assay.
Chain of human lymphotoxin (TNFβ) (human) (P01374 35-205 limits assumed): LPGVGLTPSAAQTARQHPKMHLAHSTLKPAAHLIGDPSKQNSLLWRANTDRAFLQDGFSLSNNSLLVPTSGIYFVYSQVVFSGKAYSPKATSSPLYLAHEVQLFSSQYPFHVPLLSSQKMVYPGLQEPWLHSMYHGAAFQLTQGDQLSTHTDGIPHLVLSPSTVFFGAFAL

“p75P-sf2 TNF receptor/IgG1 fusion protein (from UniProt P20333 23-204) (Fc fusion)”: the concentration required to half-inhibit human TNFβ at 2 pM, WEHI 164 cytotoxicity assay turned out to be 31 pM.
